Experimental data: US20180030149A1 (AVEO PHARMACEUTICALS, published 2018)
Read-outs that look alike come from different tables or passages of the source.

B1: 04D01 (antibody, mouse IgG1, kappa, V domains shown)
VH: QVQLQQPGAELVRPGTSVKLSCKASGYTFTSHWLHWVKQRPGQGLEWIGVLDPSDFYSNYNQNFKGKATLTVDTSSSTAYMQLSSLTSEDSAVYYCARGLLSGDYAMDYWGQGTSVTVSS
VL: DVLMTQIPLSLPVSLGDQASISCRSSQSIVHSNGNTYLEWYLQKPGQSPKSLIYKVSNRFSGVPDRFSGSGSGTDFTLKISRVEAEDLGVYYCFQGSYVPWTFGGGTKLEIKR
notes: Murine IgG1/kappa, purified from hybridoma; also called anti-hErbB3 monoclonal antibody 04D01
B2: 24C05 (antibody, mouse IgG1, kappa)
heavy: EVQLVESGGGLVKPGGSLKLSCAASGFTFSDYAMSWVRQTPEKRLEWVATISDGGTYTYYPDNVKGRFTISRDNAKNNLYLQMSHLKSEDTAMYYCAREWGDYDGFDYWGQGTTLTVSSAKTTPPSVYPLAPGSAAQTNSMVTLGCLVKGYFPEPVTVTWNSGSLSSGVHTFPAVLQSDLYTLSSSVTVPSSTWPSQTVTCNVAHPASSTKVDKKIVPRDCGCKPCICTVPEVSSVFIFPPKPKDVLTITLTPKVTCVVVDISKDDPEVQFSWFVDDVEVHTAQTQPREEQFNSTFRSVSELPIMHQDWLNGKEFKCRVNSAAFPAPIEKTISKTKGRPKAPQVYTIPPPKEQMAKDKVSLTCMITDFFPEDITVEWQWNGQPAENYKNTQPIMDTDGSYFVYSKLNVQKSNWEAGNTFTCSVLHEGLHNHHTEKSLSHSPGK
light: DIQMTQSPSSLSASLGERVSLTCRASQEISGYLSWLQQKPDGTIKRLIYAASTLDSGVPKRFSGSRSGSDYSLTIGSLESEDLADYYCLQYDSYPYTFGGGTKLEIKRADAAPTVSIFPPSSEQLTSGGASVVCFLNNFYPRDINVKWKIDGSERQNGVLNSWTDQDSKDSTYSMSSTLTLTKDEYERHNSYTCEATHKTSTSPIVKSFNRNEC
notes: Murine IgG1/kappa, from hybridoma; also called murine 24C05; 24C05 IgG1
B3: Sh24C05-25 N62S IgG1 (antibody)
heavy: not shown
light: DIQMTQSPSSLSASVGDRVTITCRASQEISGYLSWFQQKPGKAPKSLIYAASTLDSGVPSRFSGSGSGTDFTLTISSLQPEDFATYYCLQYDSYPYTFGQGTKLEIKRTVAAPSVFIFPPSDEQLKSGTASVVCLLNNFYPREAKVQWKVDNALQSGNSQESVTEQDSKDSTYSLSSTLTLSKADYEKHKVYACEVTHQGLSSPVTKSFNRGEC
notes: Humanized, human IgG1/kappa
B4: Sh24C05-25 N62S IgG2 (antibody)
heavy: QVQLVESGGGLVKPGGSLRLSCAASGFTFSDYAMSWIRQAPGKGLEWVSTISDGGTYTYYPDSVKGRFTISRDNAKNSLYLQMNSLRAEDTAVYYCAREWGDYDGFDYWGQGTLVTVSSASTKGPSVFPLAPCSRSTSESTAALGCLVKDYFPEPVTVSWNSGALTSGVHTFPAVLQSSGLYSLSSVVTVPSSNFGTQTYTCNVDHKPSNTKVDKTVERKCCVECPPCPAPPVAGPSVFLFPPKPKDTLMISRTPEVTCVVVDVSHEDPEVQFNWYVDGVEVHNAKTKPREEQFNSTFRVVSVLTVVHQDWLNGKEYKCKVSNKGLPAPIEKTISKTKGQPREPQVYTLPPSREEMTKNQVSLTCLVKGFYPSDIAVEWESNGQPENNYKTTPPMLDSDGSFFLYSKLTVDKSRWQQGNVFSCSVMHEALHNHYTQKSLSLSPGK
light: DIQMTQSPSSLSASVGDRVTITCRASQEISGYLSWFQQKPGKAPKSLIYAASTLDSGVPSRFSGSGSGTDFTLTISSLQPEDFATYYCLQYDSYPYTFGQGTKLEIKRTVAAPSVFIFPPSDEQLKSGTASVVCLLNNFYPREAKVQWKVDNALQSGNSQESVTEQDSKDSTYSLSSTLTLSKADYEKHKVYACEVTHQGLSSPVTKSFNRGEC
notes: Humanized, human IgG2/kappa
B5: Sh24C05-31 N62S IgG2 (antibody)
heavy: QVQLVESGGGLVKPGGSLRLSCAASGFTFSDYAMSWIRQAPGKGLEWVSTISDGGTYTYYPDSVKGRFTISRDNAKNSLYLQMNSLRAEDTAVYYCAREWGDYDGFDYWGQGTLVTVSSASTKGPSVFPLAPCSRSTSESTAALGCLVKDYFPEPVTVSWNSGALTSGVHTFPAVLQSSGLYSLSSVVTVPSSNFGTQTYTCNVDHKPSNTKVDKTVERKCCVECPPCPAPPVAGPSVFLFPPKPKDTLMISRTPEVTCVVVDVSHEDPEVQFNWYVDGVEVHNAKTKPREEQFNSTFRVVSVLTVVHQDWLNGKEYKCKVSNKGLPAPIEKTISKTKGQPREPQVYTLPPSREEMTKNQVSLTCLVKGFYPSDIAVEWESNGQPENNYKTTPPMLDSDGSFFLYSKLTVDKSRWQQGNVFSCSVMHEALHNHYTQKSLSLSPGK
light: DIQMTQSPSSLSASVGDRVTITCRASQEISGYLSWYQQKPGKAPKRLIYAASTLDSGVPSRFSGSGSGTEFTLTISSLQPEDFATYYCLQYDSYPYTFGQGTKLEIKRTVAAPSVFIFPPSDEQLKSGTASVVCLLNNFYPREAKVQWKVDNALQSGNSQESVTEQDSKDSTYSLSSTLTLSKADYEKHKVYACEVTHQGLSSPVTKSFNRGEC
notes: Humanized, human IgG2/kappa

How the values were obtained:
human ErbB3 [1] = molecular target: T1, human ErbB3 (human, UniProt P21860 20-1342); assay: cell-based or functional assay
[2] = molecular target: T2, recombinant human ErbB3/Fc fusion protein (human, UniProt P21860 20-643); assay: ECL competition; inhibition of NRG1-β1 binding to plate-coated rhErbB3/Fc
T2 construct: Bought (R&D Systems, Cat. No. 348-RB); the NRG1-α1 assay names Cat. No. 4518-RB instead; also called rhErbB3-Fc; rhErbB3/Fc; not shown: Fc portion of the bought fusion protein
Method: (§1) MA2400 96-well standard binding plates (Meso Scale Discovery, Cat. No. L15XA-6) were coated with 50 μl of 0.5 μg/mL rhErbB3/Fc (R&D systems, Cat. No. 348-RB) in PBS (Invitrogen, Cat. No. 14040-133) for overnight at 4° C. with no agitation. The plates then were washed 3 times with PBS+0.1% Tween20 (Sigma P5927) and blocked with 200 μl of PBS containing 5% BSA (Sera Care Life Sciences, Cat. No. AP-4510-80) for 1.5 hour at room temperature. After washing the plates 3 times with PBS, 25 μl of the antibody dilutions were added to the plates for another hour at room temperature with agitation. […] The plates then were washed 3 times with PBS, and 150 μl of 1× read buffer (Meso Scale Discovery, Cat. No. R92TC-1) was added to each well before the plates were analyzed on a Sector® Imager 2400 (Meso Scale Discovery) instrument.

[3] = molecular target: T2, recombinant human ErbB3/Fc fusion …; assay: SPR Biacore T100, 25 C; antibody captured on anti-mouse IgG, rhErbB3-Fc injected
Method: Rabbit anti-mouse IgGs (Biacore, Cat. No. BR-1008-38) were immobilized on carboxymethylated dextran CM4 sensor chips (Biacore, Cat. No. BR-1005-34) by amine coupling (BIAcore, Cat. No. BR-1000-50) using a standard coupling protocol according to vendor's instructions. The analyses were performed at 25° C., using PBS (Invitrogen, Cat. No. 14040-133) containing 0.05% surfactant P20 (Biacore, Cat. No. BR-1000-54) as running buffer.
The antibodies were captured in individual flow cells at a flow rate of 10 μl/minute. Injection time was varied for each antibody to yield an Rₘₐₓ between 30 and 60 RU. […] The dissociation phase was monitored for up to 3600 seconds. The surface was then regenerated with two 60-seconds injection of 10 mM Glycine-HCl, pH 1.7 (made from Glycine pH 1.5 (Biacore, Cat. No. BR-1003-54) and pH 2.0 (Biacore, Cat. No. BR-1003-55)) at a flow rate of […].
Kinetic parameters were determined using the kinetic function of the BIAevaluation software (Biacore) with double reference subtraction. Kinetic parameters for each antibody, kₐ (association rate constant), kd (dissociation rate constant) and KD (equilibrium dissociation constant) were determined.

human ErbB3 [4] = molecular target: T1, human ErbB3; assay: cell-based or functional assay; remark: listed apart in the source
[5] = molecular target: T2, recombinant human ErbB3/Fc fusion …; assay: ECL (MSD) competition: rhErbB3/Fc coated on the plate, antibody dilutions, then NRG1-β1 at 0.25 µg/ml; bound NRG1-β1 detected
Method: as §1

[6] = molecular target: T2, recombinant human ErbB3/Fc fusion …; assay: as above; remark: listed apart in the source
Method: (§2) Multi-array 96-well standard binding plates (Meso Scale Discovery, Cat. No. L15XA-3) were coated with 50 μl of 0.5 μg/mL rhErbB3/Fc (R&D systems, Cat. No. 348-RB) in PBS (Invitrogen, Cat. No. 14040-133) for one hour at room temperature with no agitation. The plates then were washed three times with PBS+0.1% Tween20 (Sigma P5927) and blocked with 200 μl of 100% Horse Serum, heat inactivated (GIBCO, Cat. No. 26050-088) for 1.5 hours at room temperature. After washing the plates three times with PBS+0.1% Tween, 25 μl of the antibody dilutions were added to the plates for another hour at room temperature with agitation. […] The plates then were washed three times with PBS+0.1% Tween, and 150 μl of 1× read buffer (Meso Scale Discovery, Cat. No. R92TC-1) was added to each well before the plates were analyzed on a Sector® Imager 2400 (Meso Scale Discovery) instrument.

[7] = molecular target: T3, recombinant human ErbB3 monomeric protein (cleaved rhErbB3) (human, UniProt P21860 20-643, limits assumed); assay: SPR Biacore 37 C; purified antibody captured on anti-human Fc, cleaved rhErbB3 0.3125-5.0 nM
T3 construct: Monomer made by protease cleavage of the Fc fusion; also called Monomeric ErbB3
Method: The analyses were performed at 37° C. using PBS (Invitrogen, Catalog No. 14040-133) containing 0.05% surfactant P20 (Biacore, Catalog No. BR-1000-54) as running buffer.
The antibodies were captured in individual flow cells at a flow rate of […]. Injection time was varied for each antibody to yield an Rₘₐₓ between 30 and 60 RU. […] The dissociation phase was monitored for up to 1200 seconds. The surface was then regenerated with two 60 second injections of Glycine pH 2.25 (made from Glycine pH 2.0 (Biacore, Catalog No. BR-1003-55) and pH 2.5 (Biacore, Catalog No. BR-1003-56)) at […].
The binding affinities and kinetics of certain purified monoclonal antibodies were also determined. To further characterize certain antibodies, the surface plasmon resonance experiments described above were conducted using concentrations of cleaved rhErbB3 between 0.3125 nM and 5.0 nM (a 2-fold serial dilution).

[8] = molecular target: T2, recombinant human ErbB3/Fc fusion …; assay: ECL competition; inhibition of NRG1-β1 binding to plate-coated rhErbB3/Fc; remark: listed apart in the source
Method: as §2

Binder | IC50, NRG1-β1 dependent proliferation of MCF7 cells (MTT) (human ErbB3 [1]) [nM] | IC50 [2] [nM] | Kd [3] [nM] | koff [3] [s⁻¹] | kon [3] [M⁻¹ s⁻¹] | inhibition of NRG1-β1 induced phosphorylation of Akt in MCF7 and DU145 cells (ELISA) (human ErbB3 [4]) [%] | inhibition of NRG1-β1 induced phosphorylation of ErbB3 in SKBR-3 cells (ELISA, 5 µg/ml antibody) (human ErbB3 [4]) [%] | IC50 (read off the curve) [5] [nM] | IC50 (read off the curve) [6] [nM] | Kd [7] [nM] | koff [7] [s⁻¹] | kon [7] [M⁻¹ s⁻¹] | inhibition of phosphorylation of ErbB3 in exponentially growing SKBR-3 cells (ELISA) (human ErbB3 [4]) [%] | IC50 [8] [nM]
B1 | 0.47 | 0.223 | 0.25 | 9.3e-05 | 380000 | ≥ 80 | ≥ 50 | ~0.1 | – | – | – | – | – | –
B2 | 0.39 | 0.337 | 0.0065 | 9.2e-06 | 1.5e+06 | ≥ 80 | ≥ 50 | ~0.3 | – | – | – | – | – | –
B3 | – | – | – | – | – | – | – | – | ~0.1 | 0.16 | 0.00045 | 2.9e+06 | ≥ 50 | 0.122
B4 | – | – | – | – | – | – | – | – | ~0.1 | 0.12 | 0.00034 | 2.7e+06 | ≥ 50 | 0.112
B5 | – | – | – | – | – | – | – | – | ~0.1 | 0.074 | 0.00024 | 3.2e+06 | ≥ 50 | 0.086
